Data set [1] concerns the molecule itself. The data set can be described thus: native gel or EMSA; DnaA preincubated with 3 uM ATP, then 30°C for 5 min in buffer G (20 mM HEPES–KOH pH 7.6, 80 mM KCl, 1 mM EDTA, 4 mM DTT, 5 mM magnesium acetate, 0.1 mg/ml BSA, 10% glycerol) with 35 nM 52-bp DARS2 FBS2–5 DNA and competitor λ-DNA; 7% polyacrylamide gel; oligomers counted as DnaA molecules on the DNA fragment (C1–C4). On the technique in general: Mobility shift assays separate free from complexed probe on a gel.

For a further data set, the target named is DnaA;Fis (Escherichia coli;Escherichia coli, UniProt P03004;P0A6R3 1-467;1-98, |). Briefly: EMSA; ADP; DnaA and Fis bind independently; EMSA: 20 mM HEPES-KOH pH 7.6, 80 mM KCl, 1 mM EDTA, 4 mM DTT, 5 mM Mg acetate, 0.1 mg/ml BSA, 10% glycerol, 3 uM ATP or ADP, lambda-DNA competitor, 35 nM DNA, 30 C 5 min; pull-down in same buffer with 400 nM FBS1 competitor, preincubations on ice. The conditions noted are these: protein: recombinant;recombinant; tags: ;; copies: 1;2; blunt.
Sequence of DnaA;Fis (P0A6R3 whole entry, one chain of several): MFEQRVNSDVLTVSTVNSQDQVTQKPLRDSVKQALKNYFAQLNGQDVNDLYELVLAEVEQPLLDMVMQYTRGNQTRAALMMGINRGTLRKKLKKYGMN

The target in another data set is Fis (Escherichia coli, UniProt P0A6R3 1-98). Briefly: EMSA; C1 at 100-200 nM Fis, C2 at >=360 nM; EMSA: 20 mM HEPES-KOH pH 7.6, 80 mM KCl, 1 mM EDTA, 4 mM DTT, 5 mM Mg acetate, 0.1 mg/ml BSA, 10% glycerol, 3 uM ATP or ADP, lambda-DNA competitor, 35 nM DNA, 30 C 5 min; pull-down in same buffer with 400 nM FBS1 competitor, preincubations on ice. The conditions noted are these: protein: recombinant; chain copies: 2; blunt.
Sequence of Fis (P0A6R3 whole entry): as the sequence (P0A6R3 whole entry, one chain of several) above

In data set [2] the target is T1, DnaA (Escherichia coli, UniProt P03004 1-467).
T1 sequence: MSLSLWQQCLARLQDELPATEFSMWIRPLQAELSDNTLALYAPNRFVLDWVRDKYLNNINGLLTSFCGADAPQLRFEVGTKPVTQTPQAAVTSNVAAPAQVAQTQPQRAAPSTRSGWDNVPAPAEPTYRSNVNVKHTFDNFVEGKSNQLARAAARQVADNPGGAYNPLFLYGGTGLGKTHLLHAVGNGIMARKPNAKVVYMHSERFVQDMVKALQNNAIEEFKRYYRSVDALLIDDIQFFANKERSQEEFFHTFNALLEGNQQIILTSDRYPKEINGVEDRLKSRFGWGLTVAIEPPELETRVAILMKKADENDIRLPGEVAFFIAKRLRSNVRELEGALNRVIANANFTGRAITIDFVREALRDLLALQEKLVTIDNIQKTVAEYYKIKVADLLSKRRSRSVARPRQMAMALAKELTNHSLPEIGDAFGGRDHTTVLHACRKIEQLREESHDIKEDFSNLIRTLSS
Briefly: EMSA; ATP; oligomers, trimer C3 a major form at >=480 nM DnaA; EMSA: 20 mM HEPES-KOH pH 7.6, 80 mM KCl, 1 mM EDTA, 4 mM DTT, 5 mM Mg acetate, 0.1 mg/ml BSA, 10% glycerol, 3 uM ATP or ADP, lambda-DNA competitor, 35 nM DNA, 30 C 5 min; pull-down in same buffer with 400 nM FBS1 competitor, preincubations on ice. Conditions: protein: recombinant; blunt.

Data set [3] deals with T1, DnaA. Briefly: EMSA; ATP; trimer formation not considerably inhibited; EMSA: 20 mM HEPES-KOH pH 7.6, 80 mM KCl, 1 mM EDTA, 4 mM DTT, 5 mM Mg acetate, 0.1 mg/ml BSA, 10% glycerol, 3 uM ATP or ADP, lambda-DNA competitor, 35 nM DNA, 30 C 5 min; pull-down in same buffer with 400 nM FBS1 competitor, preincubations on ice. The conditions noted are these: protein: recombinant; blunt.

Data set [4] addresses T1, DnaA. Briefly: EMSA; ATP; binding inhibited completely; EMSA: 20 mM HEPES-KOH pH 7.6, 80 mM KCl, 1 mM EDTA, 4 mM DTT, 5 mM Mg acetate, 0.1 mg/ml BSA, 10% glycerol, 3 uM ATP or ADP, lambda-DNA competitor, 35 nM DNA, 30 C 5 min; pull-down in same buffer with 400 nM FBS1 competitor, preincubations on ice. Conditions: protein: recombinant; blunt.
Data set [5] deals with T1, DnaA. Briefly: EMSA; ADP; monomer to trimer complexes at suboptimal DnaA; EMSA: 20 mM HEPES-KOH pH 7.6, 80 mM KCl, 1 mM EDTA, 4 mM DTT, 5 mM Mg acetate, 0.1 mg/ml BSA, 10% glycerol, 3 uM ATP or ADP, lambda-DNA competitor, 35 nM DNA, 30 C 5 min; pull-down in same buffer with 400 nM FBS1 competitor, preincubations on ice. The conditions noted are these: protein: recombinant; blunt.

Values joined by “and” are separate entries in the source; they are usually repeats but may differ in a detail not shown here. Equal entries are not always repeated.

B1: DnaA (replication initiator protein of Escherichia coli) (natural protein, UniProt P03004 1-467, looked up)
chain: MSLSLWQQCLARLQDELPATEFSMWIRPLQAELSDNTLALYAPNRFVLDWVRDKYLNNINGLLTSFCGADAPQLRFEVGTKPVTQTPQAAVTSNVAAPAQVAQTQPQRAAPSTRSGWDNVPAPAEPTYRSNVNVKHTFDNFVEGKSNQLARAAARQVADNPGGAYNPLFLYGGTGLGKTHLLHAVGNGIMARKPNAKVVYMHSERFVQDMVKALQNNAIEEFKRYYRSVDALLIDDIQFFANKERSQEEFFHTFNALLEGNQQIILTSDRYPKEINGVEDRLKSRFGWGLTVAIEPPELETRVAILMKKADENDIRLPGEVAFFIAKRLRSNVRELEGALNRVIANANFTGRAITIDFVREALRDLLALQEKLVTIDNIQKTVAEYYKIKVADLLSKRRSRSVARPRQMAMALAKELTNHSLPEIGDAFGGRDHTTVLHACRKIEQLREESHDIKEDFSNLIRTLSS
notes: DnaA, chromosomal replication initiator protein, Escherichia coli; four domains, Arg finger Arg285 in domain III; Preincubated with 3 uM ATP (ATP–DnaA) or ADP (ADP–DnaA) before the EMSA; The nucleotide state is told by the assay, not by a separate molecule; also called ATP–DnaA; ADP–DnaA; source: purified protein
Turning to B1, the stoichiometry N (usually the number of molecules, sites or subunits per partner or assembly) in data set [1] was 3 and 4.

B2: FBS2-5 WT (dsDNA)
DNA 1: GGGTTGGCGAAAGATCAACCAATGCCGTATTTATCCACAGAATGTGCCACTA
DNA 2: TAGTGGCACATTCTGTGGATAAATACGGCATTGGTTGATCTTTCGCCAACCC
As for B2, the binding result with DnaA;Fis, with Fis and with DnaA [2] was “binds” each time.

B3: FBS2-5 subDnaA box V-c (dsDNA)
DNA 1: GGGTTGGCGGGGGGCCGACCAATGCCGTATTTATCCACAGAATGTGCCACTA
DNA 2: TAGTGGCACATTCTGTGGATAAATACGGCATTGGTCGGCCCCCCGCCAACCC
B3: the binding result in the data set with DnaA [3] is reported as “binds”.

B4: FBS2-5 subDnaA box V (dsDNA)
DNA 1: GGGTTGGCGAAAGATCAACCAATGCCGTATACAGGCACTGAATGTGCCACTA
DNA 2: TAGTGGCACATTCAGTGCCTGTATACGGCATTGGTTGATCTTTCGCCAACCC
As for B4, the binding result with DnaA [4] is on record as “no binding”.

B5: oriC R5MI2 R14 (dsDNA)
DNA 1: TCATTACCTGTGGATAACCTGTGGATAACCTGTGGATAACCTGTGGATAAAATGA
DNA 2: TCATTTTATCCACAGGTTATCCACAGGTTATCCACAGGTTATCCACAGGTAATGA
Turning to B5, the binding result in the data set with DnaA [5] is “binds”.

The record behind these values is paper PMC8682772, “Negative feedback for DARS2–Fis complex by ATP–DnaA supports the cell cycle-coordinated regulation for chromosome replication” (Nucleic Acids Research, 2021).
